Here are results for 5 sequences from the supplement of paper PMC5998384.

Data set [1] has as its system HeLa Kyoto. The experiment in a line: solubility in G1/S (NP-40 vs SDS abundance) (log2 ratio); higher = more soluble. The note with it: cell cycle stage: G1/S.
Data set [2] deals with HeLa Kyoto. The experiment in a line: solubility change mitosis vs G1/S (difference of NP-40 vs SDS log2 ratios) (log2 ratio difference); higher = more soluble in mitosis.
In data set [3] the test system is HeLa Kyoto. The experiment in a line: thermal stability score vs G1/S (z-score of summed log2 fold changes over temperatures); higher = more thermally stable than in G1/S.
[4] abbreviates: cell cycle stage: early G1 (4.5 h after nocodazole release).
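For solubility change mitosis vs G1/S (difference of NP-40 vs SDS log2 ratios) in this document: synchronized HeLa Kyoto cells (double thymidine block for G1/S, nocodazole release for mitosis), protein amounts in NP-40 versus SDS lysates quantified by mass spectrometry, three biological replicates.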
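For solubility in G1/S (NP-40 vs SDS abundance) in this document: HeLa Kyoto cells arrested at G1/S by double thymidine block, proteins quantified by TMT10plex mass spectrometry in mild NP-40 versus SDS extracts, three biological replicates.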
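For thermal stability score vs G1/S (z-score of summed log2 fold changes over temperatures) in this document: synchronized HeLa Kyoto cells, proteins quantified by TMT10plex mass spectrometry, three biological replicates, mitosis taken 0.5 h after nocodazole release, G1/S directly after double thymidine block.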

As to “MEEELQHSHCVNCVSRRCMTRPEPGISCDLIGCPLVCGAVFHSCKADEHRLLCPFERVPCLNSDFGCPFTMARNKVAEHLEMCPASVVCCTMEWNRWPVSYADRKSYENLSRDVDEVAQLDMALALQDQRMLLESLKVATMMSKATDKVSKPREQISVKSSVPEIPHANGLVSVDEESYGALYQATVETTRSLAAALDILNTATRDIGMLNTSVPNDMDEQQNARESLEDQNLKDQDHLYEEEIGAVGGIDYNDTNQNAQSEQNGSSDLLCDLNTSSYDTSALCNGFPLENICTQVIDQNQNLHGDSKQSNLTNGDCVASSDGTSKPSSSLAVAAQLREIIPSSALPNGTVQHILMPDDEGEGELCWKKVDLGDVKNVDVLSFSHAPSFNFLSNSCWSKPKEDKAVDTSDLEVAEDPMGLQGIDLITAALLFCLGDSPGGRGISDSRMADIYHIDVGTQTFSLPSAILATSTMVGEIASASACDHANPQLSNPSPFQTLGLDLVLECVARYQPKQRSMFTFVCGQLFRRKEFSSHFKNVHGDIHAGLNGWMEQRCPLAYYGCTYSQRRFCPSIQGAKIIHDRHLRSFGVQPCVSTVLVEPARNCVLGLHNDHLSSLPFEVLQHIAGFLDGFSLCQLSCVSKLMRDVCGSLLQSRGMVILQWGKRKYPEGNSSWQIKEKVWRFSTAFCSVNEWKFADILSMADHLKKCSYNVVEKREEAIPLPCMCVTRELTKEGRSLRSVLKPVL [FBXO30]”, the “solubility in G1/S (log2)” value in the data set with HeLa Kyoto [1] was -0.564. The “solubility change mitosis (log2)” value in the data set with HeLa Kyoto [2] stood at 0.106. Moreover, the thermal stability score was 0.306 with HeLa Kyoto [3] (setting [4]) and 1.03 in the data set with HeLa Kyoto [3] (cell cycle stage: mitosis).
As to “MELKVWVDGVQRIVCGVTEVTTCQEVVIALAQAIGRTGRYTLIEKWRDTERHLAPHENPIISLNKWGQYASDVQLILRRTGPSLSERPTSDSVARIPERTLYRQSLPPLAKLRPQIDKSIKRREPKRKSLTFTGGAKGLMDIFGKGKETEFKQKVLNNCKTTADELKKLIRLQTEKLQSIEKQLESNEIEIRFWEQKYNSNLEEEIVRLEQKIKRNDVEIEEEEFWENELQIEQENEKQLKDQLQEIRQKITECENKLKDYLAQIRTMESGLEAEKLQREVQEAQVNEEEVKGKIGKVKGEIDIQGQQSLRLENGIKAVERSLGQATKRLQDKEQELEQLTKELRQVNLQQFIQQTGTKVTVLPAEPIEIEASHADIEREAPFQSGSLKRPGSSRQLPSNLRILQNPISSGFNPEGIYV [RASSF8]”, in the data set with HeLa Kyoto [1], the “solubility in G1/S (log2)” value turned out to be 0.445. Moreover, the “solubility change mitosis (log2)” value in the data set with HeLa Kyoto [2] is 0.00342. Moreover, the thermal stability score is 0.245 with HeLa Kyoto [3] (setting [4]) and -0.268 in the data set with HeLa Kyoto [3] (cell cycle stage: mitosis).
As for “MERGKMAEAESLETAAEHERILREIESTDTACIGPTLRSVYDGEEHGRFMEKLETRIRNHDREIEKMCNFHYQGFVDSITELLKVRGEAQKLKNQVTDTNRKLQHEGKELVIAMEELKQCRLQQRNISATVDKLMLCLPVLEMYSKLRDQMKTKRHYPALKTLEHLEHTYLPQVSHYRFCKVMVDNIPKLREEIKDVSMSDLKDFLESIRKHSDKIGETAMKQAQQQRNLDNIVLQQPRIGSKRKSKKDAYIIFDTEIESTSPKSEQDSGILDVEDEEDDEEVPGAQDLVDFSPVYRCLHIYSVLGARETFENYYRKQRRKQARLVLQPPSNMHETLDGYRKYFNQIVGFFVVEDHILHTTQGLVNRAYIDELWEMALSKTIAALRTHSSYCSDPNLVLDLKNLIVLFADTLQVYGFPVNQLFDMLLEIRDQYSETLLKKWAGIFRNILDSDNYSPIPVTSEEMYKKVVGQFPFQDIELEKQPFPKKFPFSEFVPKVYNQIKEFIYACLKFSEDLHLSSTEVDDMIRKSTNLLLTRTLSNSLQNVIKRKNIGLTELVQIIINTTHLEKSCKYLEEFITNITNVLPETVHTTKLYGTTTFKDARHAAEEEIYTNLNQKIDQFLQLADYDWMTGDLGNKASDYLVDLIAFLRSTFAVFTHLPGKVAQTACMSACKHLATSLMQLLLEAEVRQLTLGALQQFNLDVRECEQFARSGPVPGFQEDTLQLAFIDLRQLLDLFIQWDWSTYLADYGQPNCKYLRVNPVTALTLLEKMKDTSRKNNMFAQFRKNERDKQKLIDTVAKQLRGLISSHHS [EXOC6B]”, the “solubility in G1/S (log2)” value in the data set with HeLa Kyoto [1] is -0.17. Further, the “solubility change mitosis (log2)” value in the data set with HeLa Kyoto [2] was -0.0208. Also, the thermal stability score with HeLa Kyoto [3] (setting [4]) was determined as 0.0917; in the data set with HeLa Kyoto [3] (cell cycle stage: mitosis), 0.56.
In the case of “MERRSRRKSRRNGRSTAGKAAATQPAKSPGAQLWLFPSAAGLHRALLRRVEVTRQLCCSPGRLAVLERGGAGVQVHQLLAGSGGARTPKCIKLGKNMKIHSVDQGAEHMLILSSDGKPFEYDNYSMKHLRFESILQEKKIIQITCGDYHSLALSKGGELFAWGQNLHGQLGVGRKFPSTTTPQIVEHLAGVPLAQISAGEAHSMALSMSGNIYSWGKNECGQLGLGHTESKDDPSLIEGLDNQKVEFVACGGSHSALLTQDGLLFTFGAGKHGQLGHNSTQNELRPCLVAELVGYRVTQIACGRWHTLAYVSDLGKVFSFGSGKDGQLGNGGTRDQLMPLPVKVSSSEELKLESHTSEKELIMIAGGNQSILLWIKKENSYVNLKRTIPTLNEGTVKRWIADVETKRWQSTKREIQEIFSSPACLTGSFLRKRRTTEMMPVYLDLNKARNIFKELTQKDWITNMITTCLKDNLLKRLPFHSPPQEALEIFFLLPECPMMHISNNWESLVVPFAKVVCKMSDQSSLVLEEYWATLQESTFSKLVQMFKTAVICQLDYWDESAEENGNVQALLEMLKKLHRVNQVKCQLPESIFQVDELLHRLNFFVEVCRRYLWKMTVDASENVQCCVIFSHFPFIFNNLSKIKLLHTDTLLKIESKKHKAYLRSAAIEEERESEFALRPTFDLTVRRNHLIEDVLNQLSQFENEDLRKELWVSFSGEIGYDLGGVKKEFFYCLFAEMIQPEYGMFMYPEGASCMWFPVKPKFEKKRYFFFGVLCGLSLFNCNVANLPFPLALFKKLLDQMPSLEDLKELSPDLGKNLQTLLDDEGDNFEEVFYIHFNVHWDRNDTNLIPNGSSITVNQTNKRDYVSKYINYIFNDSVKAVYEEFRRGFYKMCDEDIIKLFHPEELKDVIVGNTDYDWKTFEKNARYEPGYNSSHPTIVMFWKAFHKLTLEEKKKFLVFLTGTDRLQMKDLNNMKITFCCPESWNERDPIRALTCFSVLFLPKYSTMETVEEALQEAINNNRGFG [HERC5]”, the “solubility in G1/S (log2)” value in the data set on HeLa Kyoto [1] was -1.44. Further, in the data set on HeLa Kyoto [2], the “solubility change mitosis (log2)” value was found to be 0.525. The thermal stability score is -0.386 in the data set with HeLa Kyoto [3] (setting [4]) and -1.53 with HeLa Kyoto [3] (cell cycle stage: mitosis).
As to “METRYNLKSPAVKRLMKEAAELKDPTDHYHAQPLEDNLFEWHFTVRGPPDSDFDGGVYHGRIVLPPEYPMKPPSIILLTANGRFEVGKKICLSISGHHPETWQPSWSIRTALLAIIGFMPTKGEGAIGSLDYTPEERRALAKKSQDFCCEGCGSAMKDVLLPLKSGSDSSQADQEAKELARQISFKAEVNSSGKTISESDLNHSFSLTDLQDDIPTTFQGATASTSYGLQNSSAASFHQPTQPVAKNTSMSPRQRRAQQQSQRRLSTSPDVIQGHQPRDNHTDHGGSAVLIVILTLALAALIFRRIYLANEYIFDFEL [UBE2J1]”, in the data set on HeLa Kyoto [1], the “solubility in G1/S (log2)” value came out at 0.222. Further, the “solubility change mitosis (log2)” value with HeLa Kyoto [2] is 0.00691. In addition, the thermal stability score was -0.0441 in the data set with HeLa Kyoto [3] (setting [4]) and 1.77 in the data set on HeLa Kyoto [3] (cell cycle stage: mitosis).
